Results on 2 substances are retold here after patent publication US20010034432A1.

For assay [1], the target named is human CCR5 with a C-terminal glycine residue followed by the C9 nonapeptide tag (expressed from the (human; bovine) (UniProt P51681). Briefly: immunoprecipitation from 35S-labeled Cf2Th/PACH/synCCR5 lysate in 1% DHPC, SDS-PAGE.
Assay [2] shares this target. Put plainly: immunoprecipitation from 35S-labeled Cf2Th/PACH/synCCR5 lysate in 1% Cymal-5, SDS-PAGE.
Assay [3] shares this target. Put plainly: immunoprecipitation from 35S-labeled Cf2Th/PACH/synCCR5 lysate in 1% Fos-Choline-14, SDS-PAGE.
Assay [4] concerns the target cleavage-defective, cytoplasmic tail-truncated gp160 envelope glycoprotein of the YU2 HIV-1 primary (HIV-1 YU2 primary isolate; bovine) (UniProt P35961). Briefly: FACS binding curves on gp160-expressing 293T cells and gp160-proteoliposomes. A general note: In flow cytometry, cells or beads pass a laser one at a time.
UniProt P35961, sequence (P35961 whole entry, the tested form may be a part): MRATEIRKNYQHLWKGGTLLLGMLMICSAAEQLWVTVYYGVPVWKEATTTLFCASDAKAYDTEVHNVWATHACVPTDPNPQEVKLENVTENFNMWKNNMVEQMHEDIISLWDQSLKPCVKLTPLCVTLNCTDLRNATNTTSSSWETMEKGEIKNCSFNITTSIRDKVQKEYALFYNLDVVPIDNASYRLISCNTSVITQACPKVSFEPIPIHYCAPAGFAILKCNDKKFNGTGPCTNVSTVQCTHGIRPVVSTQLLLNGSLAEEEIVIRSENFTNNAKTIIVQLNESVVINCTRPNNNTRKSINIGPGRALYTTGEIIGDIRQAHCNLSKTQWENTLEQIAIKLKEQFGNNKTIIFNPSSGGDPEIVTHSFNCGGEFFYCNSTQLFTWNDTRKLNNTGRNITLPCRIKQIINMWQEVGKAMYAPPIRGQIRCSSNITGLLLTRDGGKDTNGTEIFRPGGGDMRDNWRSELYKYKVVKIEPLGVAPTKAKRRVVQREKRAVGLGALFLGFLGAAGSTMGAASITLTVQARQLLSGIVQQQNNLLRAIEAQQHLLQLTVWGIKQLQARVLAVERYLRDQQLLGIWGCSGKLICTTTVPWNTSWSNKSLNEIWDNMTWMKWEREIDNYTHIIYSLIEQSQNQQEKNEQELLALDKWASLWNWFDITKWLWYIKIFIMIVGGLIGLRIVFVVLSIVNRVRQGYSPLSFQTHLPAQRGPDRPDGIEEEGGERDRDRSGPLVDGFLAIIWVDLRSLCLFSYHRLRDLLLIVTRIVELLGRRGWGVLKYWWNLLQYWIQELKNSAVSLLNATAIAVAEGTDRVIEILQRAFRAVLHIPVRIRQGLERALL

UniProt P51681, sequence (P51681 whole entry): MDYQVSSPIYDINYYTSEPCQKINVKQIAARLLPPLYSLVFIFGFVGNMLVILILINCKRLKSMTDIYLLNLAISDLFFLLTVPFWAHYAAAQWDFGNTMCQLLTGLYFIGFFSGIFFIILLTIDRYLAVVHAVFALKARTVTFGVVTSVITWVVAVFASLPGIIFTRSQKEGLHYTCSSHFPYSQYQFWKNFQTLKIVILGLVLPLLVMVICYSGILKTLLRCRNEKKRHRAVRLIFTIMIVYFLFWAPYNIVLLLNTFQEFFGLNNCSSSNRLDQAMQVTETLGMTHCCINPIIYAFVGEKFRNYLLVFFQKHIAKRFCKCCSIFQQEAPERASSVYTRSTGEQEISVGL

With “2D7 anti-CCR5 antibody (conformation-dependent)”, the percentage of conformationally intact CCR5 (CCR5 precipitated by 2D7 relative to that precipitated by 1D4) in assay [1] came to 10%; in assay [2], 98%; in assay [3] it was 13%.

As for CD4BS antibody IgGb12, the EC50 in assay [4] is below 1 µg/mL.

As a reminder, the EC50 is the concentration needed to bring the measured effect to its halfway point. A low value points to greater potency.
